Patent CN117999283A (INST BASIC SCIENCE; KOREA ADVANCED INST SCI & TECH, dated 2024)

B1: hTAAB (hTie2活化小鼠单克隆抗体, 小鼠IgG1) (antibody, V domains shown)
VH: QVQLQQPGAELVRPGASVKLSCKASGYSFTSYWMNWVKQRPGQGLEWIGMIHPSDSETRLNQKFMDKATLTVDKSSSTAYMQLSSPTSEDSAVYYCARGLYGNSWGQGTLVTVSA
VL: DIQMTQSPSSLSASLGERVSLTCRASQDIGISLNWLQQEPDGTIKRLIYATSSLDSGVPKRFSGSRSGSDYSLTISSLESEDFVDYYCLQYASSPYTFGGGTKLEIK
notes: Mouse IgG1 from a hybridoma; also called 小鼠hTAAB; 亲本hTAAB
B2: 人Tie2 ECD (人Tie2的第23-735位残基) (receptor, human, UniProt Q02763 23-735, looked up)
chain: AMDLILINSLPLVSDAETSLTCIASGWRPHEPITIGRDFEALMNQHQDPLEVTQDVTREWAKKVVWKREKASKINGAYFCEGRVRGEAIRIRTMKMRQQASFLPATLTMTVDKGDNVNISFKKVLIKEEDAVIYKNGSFIHSVPRHEVPDILEVHLPHAQPQDAGVYSARYIGGNLFTSAFTRLIVRRCEAQKWGPECNHLCTACMNNGVCHEDTGECICPPGFMGRTCEKACELHTFGRTCKERCSGQEGCKSYVFCLPDPYGCSCATGWKGLQCNEACHPGFYGPDCKLRCSCNNGEMCDRFQGCLCSPGWQGLQCEREGIQRMTPKIVDLPDHIEVNSGKFNPICKASGWPLPTNEEMTLVKPDGTVLHPKDFNHTDHFSVAIFTIHRILPPDSGVWVCSVNTVAGMVEKPFNISVKVLPKPLNAPNVIDTGHNFAVINISSEPYFGDGPIKSKKLLYKPVNHYEAWQHIQVTNEIVTLNYLEPRTEYELCVQLVRRGEGGEGHPGPVRRFTTASIGLPPPRGLNLLPKSQTTLNLTWQPIFPSSEDDFYVEVERRSVQKSDQQNIKVPGNLTSVLLNNLHPREQYVVRARVNTKAQGEWSEDLTAWTLSDILPPQPENIKISNITHSSAVISWTILDGYSISSITIRYKVQGKNEDQHVDVKIKNATITQYQLKGLEPETAYQVDIFAENNIGSSNPAFSHELVTLPES
notes: range 23-735; The construct is defined on GenBank AAH35514.2; Tags are not described; also called hTie2 ECD

What was measured:
[1] = biological target: B2; assay: SPR (Biacore T200): hTie2 ECD amine-coupled on CM5, IgG as analyte at 0-64 nM, 1:1 model
[2] = biological target: the molecule itself; assay: SEC-MALS; self-association in solution

| Binder | Kd [1] [nM] | koff [1] [s⁻¹] | kon [1] [M⁻¹ s⁻¹] | binding result [2] |
| --- | --- | --- | --- | --- |
| B1 | 4.2 | 0.0006 | 140000 | – |
| B2 | – | – | – | no binding (tested: 1mg/ml) |
